Reference: the DeepSol protein solubility set

test: soluble on expression in E. coli; label from the status in PepcDB or PDB records

Sequence	soluble on expression in E. coli
MSGTASKGSSSDSASEKTEMRTYKSPKGNVNIPAHPKRIVTDFYAGELLSVGANVVGSGSWSFDNPFLKSKLKNVKDVGDPISVEKVMELQPDLIVVMNEENVDKLKKIAPTVVIPYNTAKNVEDTVSMFGDIAGAKDQAKSFMADFNKKAEAAKKKIAGVIDKDATFGIYENTDKGEFWVFNDNGGRGGQAVYNALGLKAPEKIEQDVIKKGEMKQLSQEVIPEYAADYMFITDYNPKGESKTLDKLENSSIWKNLDAVKHNRVFINDFDSFYPYDPISVSKQVDIITDMLIKRAEENLEHHHHHH	soluble
MSGVWVFKNGVIRLVENPNQSGSDTQNRRKVMVYLPTGEVVSSYSTLEQILQSLGWERYFGGGDTDLLQFHKRSSIDLISLPRDFTKFNSVYMYDIVVKNPNYFHVRDSH	not soluble
MSHHPDLSVSLDQLLLRKEVRVRQQGEWLKRHSLPLVSFTVNMPGAVKLNAASQTVMDAGMRAIQELCQKTGWRQVACQLLVEKTGPEAFVVIQAPSASMLKKAMMKIEREHPLGRLMDLDVIDVDGHIISRQGAQLPRRRCLLCERDAVICARSRRHSVEALLAKIEEMTHDYSCCA	soluble
MSHQIRSKKTLWELVGRNKDALRDFLKEHRGTILLRDIASEHKVVYKPIFKRYNGDPDLIEDNSNDVEHWYDYHLERYWNTPELKKEFYKKFGPVDLNQPIILAKPLRQHNRGDLVHLLPQFVVPVYN	soluble
MSHSTYSLSFVASPSEEAQTALKELKAVYSDTPFEEADVIVALGGDGFMLQILNETMNSGKRVYGMNRGSVGFLMNDFRVEGLIQRIAVASGNDFHPLRMTTTDSDGDEFTALAMNEVSLFRQSHQAAKLRVEVDGKVRLEELICDGMMVATPAGSTAYNFSAHGPILPLESPLLALTPVSAFRPRRWRGALLPNKVTVDIHVLERDKRPVNAVADHTEVKSVRHVRIAQSQDRTAKILSDPDRSWSDRVLAEQFNNLEHHHHHH	not soluble
MSHVDDGFRSLTLKRFPQTDDVNPLLAWEAADEYLLQQLDETEIRGPVLILNDTFGALSCALAEHSPYSIGDSYLSELGTRENLRHNGIAESSVTFLDSTADYPQAPGVVLIKVPKTLALLEQQLRALRKVVTAQTRIIAGAKARDIHTSTLELFEKVLGPTTTTLAWKKARLINCTFSHPQLADAPQTLSWKLEDTGWTIHNHANVFSRTGLDIGARFFMQHLPENLDGEIVDLGCGNGVIGLSLLAKNPQANVVFVDESPMAVDSSRLNVETNLPEAFERCEFMINNALSGVEPFRFNAVFCNPPFHQKHALTDNIAWEMFHHARRCLKINGELYIVANRHLDYFHKLKKIFGNCATIATNNKFVILKAVKQGRRR	not soluble
MSIEPTQVSREAELGAFLRTHRERLTPSDVGLPPGRRRRTPGLRREEVAQLSGLSATWITWLEQGRPVAMSVRALGSLAEALRLSRAERAYLFALAGKPEPRQDAEPAVPVALLASVQAISGPAYLLDRQWTARAWNAAAADLFVGWLDAASGERNLLRAMFLPTALQALVEDWPHRAARLVAEFRVHSLRHAEDPPTRALIERLMEDSPAFAAAWRSQDVDERQGGRRGFHHPMRGLVYFEQLTLVPPAAPGMMLVMLLPETP	soluble
MSIIFNQRIEIIRAGEKRSVYSSDVMEDWDNPVVLPVEVPVSIQPVSSTESDATANRSYVTSRFRLFSPPGIDIPQLKAKDRVRIGLLVLDVVGDPARWPHPLKPATVHHVEADLEVHRG	not soluble
MSIIIENSGLFSSFQDFGRKGYEHEGVIPSGALDELAHEIANRLVANDKNEATLEMTQKMATIRFTEPALIALTGGNFKAETEHMKIYPNKLYLINEGETLKFNETSRTSRVYLAVGGGFKLEKWLHSASTDFNVEIGGFEGRKLKKGDEIELKHHYSQRHLKLFENLSDKRTTDWGIDGYALSFNYVSDVFHVIKNKGTEDFKKEATRRFTTAEYSVSSKTNRVGMVLDGPQIKAYYDDMPAHQSVKRGTIQVKRDGTPIVLLNDHYTLGSYPQIGTIASYHLTKLAQKPQGSKLKFQFIDIETAEKNLIKYSNWLNQLFHGIEHRMQLEMLKMAGDPLEHHHHHH	not soluble
MSILDGFKEVGESNNGKLTMTVMLESVRFSKNVSAVLGFPKYVKVLVNNDEKKFAIQKCNDKDEYAIRFATKKPGEASAVTLRNVDLLVATQKFFSFPELDDPTKIAFYALDGEYYSDEQVIVFNVEGAKNGTVGKRGPKAGSHRKTSQAKLEHHHHHH	soluble
MSINKIEEDRDISSDLEMKAKMYLVHRMDKAGPLTVKDVRILINKLSKDLQKNQLTLIDCQLIINLVESRFTLVKQATRYLQFFLNKLDGKSINPILIPLSNKPFWQNEPHPFDHYRSTDQLPEKVDIVIIGAGLTGASTAYHLIDAVKKRHLTVVLLDKGNPATEASGRNGGNFELLPENSVGIYSGLVSERFRFLKRCYPHVHPSILQIESEYHASLVFQFALKNRNRFKEIARKERIYCDLAAKGWLYIAHTEEEEQAICDEVTLAAQHGERIYIWSRKKIREQFGINSKFIGRFIPDDGTYNPFKYTCCLIKAAIKSGIKLYTFVKVQQIKSIDTEYHQLKTNMGLLKARQVIVATNAFTSELLPELRAIKPHQSQIAITDSTPDYCKGRLITSEDGPLYLNQPRVRSKNGLVPLLIGAGDDRPMKNPYYRKRSKKVHDLIVQQRDKYFPNLKGRPFSTEWVGALAFTPDQLPAIGYLSPGIIIVMCCNGYGGSYTTAAGLAAAEIALTGKNPPWLPADVFSPKRLLSDKPLFWEDSDSLWRIGKTLCTTLNNLNQLLAESLSYQSMYQPYSTISLLPHGHQEKNCNLDPLRVMHQLAIFRTFAYQELEMLIRYTSPVCLSKGEILFKQGDAGHSCFILIQGKINLYYEHAEGFTSMVAELEAGSVFGQMALFLENKRMATCQATENCSMLEIMVEPCKSLFIQQQALGIKLLRLLNQGVIDALHKLNKRLKYT	not soluble
MSIRSLGYLRIEATDMAAWREYGLKVLGMVEGKGAPEGALYLRMDDFPARLVVVPGEHDRLLEAGWECANAEGLQEIRNRLDLEGTPYKEATAAELADRRVDEMIRFADPSGNCLEVFHGTALEHRRVVSPYGHRFVTGEQGMGHVVLSTRDDAEALHFYRDVLGFRLRDSMRLPPQMVGRPADGPPAWLRFFGCNPRHHSLAFLPMPTSSGIVHLMVEVEQADDVGLCLDRALRRKVPMSATLGRHVNDLMLSFYMKTPGGFDIEFGCEGRQVDDRDWIARESTAVSLWGHDFTVGARG	soluble
MSISSIPSSPSISGSSTSSTAPNISFCYTWTTKLKTRKTADGEATILSISPKFATVHQLISFQWNIRIHATSEMNEEDEEVDYVAVDLYLVDGPVNEVNVMAEVGALEKTSTATLGSLPAGQKEAKTIKMQKGSGCEITDADRECVSKYLKENTRLFEPSTYLDAISPTPRASFLTANYNARVNSKVWKRRSRKRNGRIERRVLSDKEKTKYESKVQMILDEEREKLCDKREMLKEDDGGSRRASLISQFRENQHESVLDDHMFKRILVSCCESCEQRRLSFMCDSRTEDDSEGEDCEDNEEDDGEGGSDDEEDDGEEPHFECDKSDKEHVHDMLANLYFNKVVLPEMEYVEDFVDFLIDAELNDLPVLKRACERYLCSELNSKKDIGTCLLLDLLFNSIVFNLPVMKSMTLTELANRTHEFVDADTLLDQEEFKNLDKRMRTLADRNLVELIEQCVTFRDQKARVRVLPTAESFDISFDLTNQ	not soluble
MSIVLSADHKDALQEFMNISMGRAASKLATLLNLHVTISVPNIRVATEEDMRALQSYAADYYYTRQSFYGGMDGELITLMSRCGCEQVVNDLNHSKGMADGLVSIEESILDISNILSGASLKGLCQQIELKTKIQPPVIFDPTHQPLPILQWRLSLIMEINFLVEKASFSAKTIICFADKELDKVFAHLDELLM	not soluble
MSKCPTVRARAIDCKQGAVRAVRYNVDGNYCVTCGSDKTVKLWNPLKSSLLKTYSGTGNEVLDAASSSDNSQIAAGGADRACTVFDVETGKQLRRWRTHGAQVNAVAFNEESSVVFSGSMDCTMQAFDCRSRSEKPIQIFNESTDGILSIDVNGHEIVAGSADGNYRVYSIRDGNMTVDYMGDSVNSVSFTPDSNCLLAGVMGGIVRLIDKSSGKLLASYKGHQNTEYKLDCRVLQSIEHVASGSEDGFVYVYSLLDSHIVSKLEHPSKVIHSLTAHPKKERLMTAAGQMIYLWVAEDDAEVLGE	not soluble
MSKFFINPEVLEKYSQKLAEHKSSVNHVRDLVAQADVSDESWGIVGLFVKQSYTEMLGDFKDLLKDMSDGLDSASDKMMSATRAYREIEEENRRILVEITRRINAAKIKNITS	not soluble
MSKHTLIRRAVLEKLESVTGAPVTLFDGLPAFVEQEDLPAIAVWLTDAQYTGLMTDEDDWQATLHTAVFLRAQAPDTELDIWMEEKIFPALEEVSGLERLIDTMTPLGYDYQRDSEMATWGMAEITYRITYTN	soluble
MSKLCKEFSLSATVKNISRFVDEEIYYTDTEERFNIPWRMCIAKCDDEFSLGLKCEKNNWDNREWSIETDWTMKLVSHNGKSLMESKKFTFNNSNIFDGGLNTSWDLLESDYVVDDSVVVEAHVKIIKITDLPCDEDEDSKTFLLSSTVRNISSIEEGDDYYTETTIRHNIPWRMQIKRDDGFFGLFLRCEKEDCEDPGKSWSIELDYELRLVSLNGQSLTFSDSDLFIYPSGEGFQKFMRWDDMEEKYMVNGSIIIEARGKITSLEESDDESSSENEEDDSSESHSENDSSSDNLEDEFSECVINVGGQNYTVKKQ	not soluble
MSKLIKGIAASDGVAIAKAYLLVEPDLTFDKNEKVTDVEGEVAKFNSAIEASKVELTKIRNNAEVQLGADKAAIFDAHLLVLDDPELIQPIQDKIKNENANAATALTDVTTQFVTIFESMDNEYMKERAADIRDVSKRVLSHILGVELPNPSMIDESVVIVGNDLTPSDTAQLNKEFVQGFATNIGGRTSASAIMSRSLEIPAIVGTKSITQEVKQGDMIIVDGLNGDVIVNPTEDELIAYQDKRERYFADKKELQKLRDADTVTVDGVHAELAANIGTPNDLPGVIENGAQGIGLYRTEFLYMGRDQMPTEEEQFEAYKEVLEAMGGKRVVVRTLDIGGDKELSYLNLPEEMNPFLGYRAIRLSLAQQDIFRPQLRALLRASVYGKLNIMFPMVATINEFREAKAILLEEKENLKNEGHDISDDIELGIMVEIPATAALADVFAKEVDFFSIGTNDLIQYTLAADRMSERVSYLYQPYNPSILRLVKQVIEASHKEGKWTGMCGEMAGDETAIPLLLGLGLDEFSMSATSILKARRQINGLSKNEMTELANRAVDCATQEEVIELVNNYVK	soluble
MSKLLLVGEPLIRVSPNQFQPLTNACEAQLFFGGSEVNIARTLGGFGLEARLFTALPDNPVGHAFHQFLKQSGVDMSLTAWQGHRVGLYYLENGFGCRASQVYYDRCGSSFSALDKDSLDLAAIFEGISHFHFSGISLALGKKTQDLIEVLVREAKKRDICISFDLNFRSSMIAVADAKRLFSHFAQYADIIFGMEPLLLDSDDFDMFDRKKADTTTIRERLAGLYQRYQLQAIYHTERSNDAQGSNHFKAYAYDRQFYESCEVTTPVLQRVGSGDAFVAGLLYQLLEGNEKQRNLDFAVATASLKCTVAEDQLYHSVQQVEAVLANQRDIQR	not soluble
MSKLQGKKITPMPISAGITVVDLINEYFTAYNSARLREACKLLSQDIFQAGVTVGVSLSGAMTPAGFGVSALAPLIRHGFIDWMISTGANLYHDVHYALGFELFAGSPFLDDVKLREEGTIRIYDIIFGYDVLLETDAFIRKVLQAEPFQKRMGTAEFHYLLGKYVREVEKQLGVQHSCLLATAYEYGVPIYTSSPGDSSIGMNVAALALEGSRLVLDPAIDVNETSAIAYGARETDGKSAAVILGGGSPKNFLLQTQPQIHEVLGLEERGHNFFVQFTDARPDTGGLSGATPAEAVSWGKIDPDELPSTIVCYTDSTIAIPLVTAYVLNQCQARPVKRLYDRREALLETLQKDYLAAKDKPVVKEEGTEEVPSYRCGTPIKR	not soluble
